Measurements published in PMC10940162.
Values belong to the molecule of their own block, whether it stands above or below them.

Key:
[1] = target: porcine brain tubulin (microtubules) (porcine)
[2] = target: porcine brain tubulin (microtubules) (porcine); assay: in vitro reconstitution with TIRF microscopy; microtubules nucleated from and anchored at γ-TuC (GCP3–GFP) held by anti-GFP nanobody; 25 µM tubulin, 80 mM KCl, MRB80, 30 °C; 5 nM SNAP–AF647–CAMSAP3, 5 nM SNAP–AF647–CAMSAP1 or 40 nM mCherry–CAMSAP2; scored over 10 min
[3] = target: γ-tubulin-containing complexes (complete and incomplete γ-TuRC) purified using GCP3–GFP–SII (human (endogenous in HEK293T)) (UniProt Q96CW5); assay: single-molecule colocalisation by TIRF microscopy; NPF pre-incubated with γ-TuC–GFP or GFP control ('Premix'), then held on the coverslip by biotinylated anti-GFP nanobody; without tubulin
UniProt Q96CW5, sequence (Q96CW5 whole entry, looked up, one chain of several): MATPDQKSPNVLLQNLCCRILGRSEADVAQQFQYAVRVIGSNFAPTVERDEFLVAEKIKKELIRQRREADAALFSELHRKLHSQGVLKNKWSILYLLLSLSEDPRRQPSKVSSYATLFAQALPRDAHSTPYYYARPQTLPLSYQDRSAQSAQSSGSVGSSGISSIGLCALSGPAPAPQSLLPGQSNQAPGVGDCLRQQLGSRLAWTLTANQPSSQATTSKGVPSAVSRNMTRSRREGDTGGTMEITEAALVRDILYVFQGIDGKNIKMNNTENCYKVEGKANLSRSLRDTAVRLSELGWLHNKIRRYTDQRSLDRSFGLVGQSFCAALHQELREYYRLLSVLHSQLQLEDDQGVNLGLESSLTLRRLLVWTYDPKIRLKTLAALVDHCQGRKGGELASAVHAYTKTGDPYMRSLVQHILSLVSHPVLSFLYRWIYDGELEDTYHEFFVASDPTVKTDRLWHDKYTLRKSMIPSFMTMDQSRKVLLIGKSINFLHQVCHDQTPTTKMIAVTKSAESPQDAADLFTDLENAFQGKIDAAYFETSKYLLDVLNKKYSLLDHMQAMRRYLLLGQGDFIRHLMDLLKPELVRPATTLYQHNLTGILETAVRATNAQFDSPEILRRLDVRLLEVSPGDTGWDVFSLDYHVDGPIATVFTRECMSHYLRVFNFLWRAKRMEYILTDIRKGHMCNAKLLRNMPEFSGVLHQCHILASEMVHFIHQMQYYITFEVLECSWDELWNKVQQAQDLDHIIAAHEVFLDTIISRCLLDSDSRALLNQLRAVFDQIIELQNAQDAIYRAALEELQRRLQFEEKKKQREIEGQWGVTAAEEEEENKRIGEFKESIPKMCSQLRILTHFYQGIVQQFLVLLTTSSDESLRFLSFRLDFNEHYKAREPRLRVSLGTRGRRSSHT

[4] = target: γ-tubulin-containing complexes (complete and incomplete γ-TuRC) purified using GCP3–GFP–SII (human (endogenous in HEK293T)) (UniProt Q96CW5); assay: single-molecule colocalisation by TIRF microscopy; γ-TuC–GFP held on the coverslip by biotinylated anti-GFP nanobody; with free tubulin (17.5 µM, 50 mM KCl, 30 °C); the sentence does not tell whether the NPF was premixed
[5] = target: γ-tubulin-containing complexes (complete and incomplete γ-TuRC) purified using GCP3–GFP–SII (human (endogenous in HEK293T)) (UniProt Q96CW5)
[6] = target: γ-tubulin-containing complexes (complete and incomplete γ-TuRC) purified using GCP3–GFP–SII (human (endogenous in HEK293T)) (UniProt Q96CW5); assay: single-molecule colocalisation by TIRF microscopy; NPF pre-incubated with γ-TuC–GFP in solution ('Premix'), then held on the coverslip by biotinylated anti-GFP nanobody; with 17.5 µM tubulin, 50 mM KCl, MRB80, 30 °C
[7] = target: porcine brain tubulin (microtubules) (porcine); assay: in vitro reconstitution with TIRF microscopy; as a7 with 5 nM SNAP–AF647–CAMSAP3 and 200 nM chTOG–mCherry (not premixed)
[8] = target: porcine brain tubulin (microtubules) (porcine); assay: in vitro reconstitution with TIRF microscopy; as a7 with 5 nM SNAP–AF647–CAMSAP3 and 30 nM mCherry–CLASP2 (pre-incubated with γ-TuC)
[9] = target: porcine brain tubulin (microtubules) (porcine); remark: listed apart in the source
[10] = target: porcine brain tubulin (microtubules) (porcine); assay: in vitro reconstitution with TIRF microscopy; microtubules nucleated from and anchored at γ-TuC (GCP3–GFP) held by anti-GFP nanobody; 25 µM tubulin, 80 mM KCl, MRB80, 30 °C; 5 nM SNAP–AF647–CAMSAP3, 5 nM SNAP–AF647–CAMSAP1 or 40 nM mCherry–CAMSAP2; scored over 10 min; remark: listed apart in the source
[11] = target: porcine brain tubulin (microtubules) (porcine); assay: in vitro reconstitution with TIRF microscopy; as a7 with 5 nM SNAP–AF647–CAMSAP3 and 30 nM mCherry–CDK5RAP2 (pre-incubated with γ-TuC)
[12] = target: γ-tubulin-containing complexes (complete and incomplete γ-TuRC) purified using GCP3–GFP–SII (human (endogenous in HEK293T)) (UniProt Q96CW5); assay: single-molecule colocalisation by TIRF microscopy; γ-TuC–GFP held on the coverslip by biotinylated anti-GFP nanobody; with free tubulin (17.5 µM, 50 mM KCl, 30 °C); the sentence does not tell whether the NPF was premixed; remark: listed apart in the source
[13] = target: γ-tubulin-containing complexes (complete and incomplete γ-TuRC) purified using GCP3–GFP–SII (human (endogenous in HEK293T)) (UniProt Q96CW5); assay: single-molecule colocalisation by TIRF microscopy; NPF pre-incubated with γ-TuC–GFP or GFP control ('Premix'), then held on the coverslip by biotinylated anti-GFP nanobody; without tubulin; remark: listed apart in the source

γ-TuC displacement frequency (microtubules released among γ-TuC-anchored minus ends colocalizing with the CAMSAP) [1]: 5% | percent of γ-TuC-nucleated microtubules with CAMSAP at the minus end [2]: 25%
Molecule: SNAP–AF647–CAMSAP1 (from UniProt Q5T5Y3 1-1602) (natural protein)

percent of chTOG-positive puncta colocalizing with γ-TuC [3]: 28% | percent of chTOG-positive puncta colocalizing with γ-TuC [4]: 6%
Molecule: chTOG–mCherry (from UniProt Q14008 1-2032) (natural protein)

microtubule nucleation efficiency of γ-TuC (percent of γ-TuCs nucleating within 10 min), mCherry–CDK5RAP2 pre-incubated with γ-TuCs [5]: 35% | percent of CDK5RAP2-positive puncta colocalizing with γ-TuCs [3]: 41% | percent of γ-TuCs colocalizing with CDK5RAP2 [3]: 30% | percent of CDK5RAP2-positive puncta colocalizing with γ-TuCs [4]: 13% | percent of γ-TuCs colocalizing with CDK5RAP2 [6]: 38%
Molecule: mCherry–CDK5RAP2 (from UniProt Q96SN8 1-1893) (natural protein)

percent of γ-TuC-nucleated microtubules with CAMSAP at the minus end [7]: 25% | percent of γ-TuC-nucleated microtubules with CAMSAP at the minus end [8]: 35% | γ-TuC displacement frequency (microtubules released among γ-TuC-anchored minus ends colocalizing with the CAMSAP) [1]: 40% | percentage of microtubules released from γ-TuCs with SNAP–AF647–CAMSAP3 [9]: 15% | percent of γ-TuC-nucleated microtubules with CAMSAP at the minus end [10]: 30% | percent of γ-TuC-nucleated microtubules with CAMSAP at the minus end [11]: 3%
B1: SNAP–AF647–CAMSAP3 (natural protein)
chain: MVEAAPAGSGPLRRTFLVPEIKSLDQYDFSRAKAAASLAWVLRAAFGGAEHVPPELWEPFYTDQYAQEHVKPPVTRLLLSAELYCRAWRQALPQLEPSPSPSALLALLARRGTVPSLPEHPVREADLKHQPILMGAHLAVIDALMVAFSFEWTKTLPGPLALSSLEHKLLFWVDTTVRRLQEKTEQEAAQRASPAAPLDGASPAQPSIRYRKDRAIARRAPCFPNVTTLQDLASGAALAATIHCYCPQLLRLEEVCLKDPMSVADSLYNLQLVQDFCASHLPRGCPLSLEDLLYVPPPLKVNLVVLLAEMYMCFEVLKPDFVQAKDLPDGHAVSPRNTETVPSQNNSGSSSPVFNFRHPLLSPGGPQSPLRGSTGSLKSSPSMSHMEALGKAWNRQLSRPLSQAVSFSTPFGLDSDVDVVMGDPVLLRSVSSDSLGPPRPVSTSSRNSAQPAPESGDLPTIEEALQIIHSAEPRLLPDGAADGSFYLHSPEGLSKPPLSPYPPEGASKPLSDRLNKAPIYISHPENPSKSSPCSTGEILKPPPPSEGSPKAVASSPAANNSEVKMTSFAERKKQLVKAEAESGLGSPTSTPVAPEALSSEMSELGARLEEKRRAIEAQKRRIEAIFAKHRQRLGKSAFLQVQPREAAGEAEEEAELGSVPGGERPAGEGQGEPSLRHKSVTFSPDLGPVPPEGLGDYNRAVSKLSAALSSLQRDMQRLTDQQQRLLAPPEAPGPAPPPAAWVIPGPATGPKAASPSPARRAPAARRSPGPGPSPTPRSPKHARPAELKLAPLTRVLTPPHDVDSLPHLRKFSPSQVPVQTRSSILLSEGTPPEEPTTKPALIEIPLASLGEPAADEEGDGSPPGAEDSLEEEASSEGEPRSGLGFFYKDEDKPEDEMAQKRASLLERQQRRVEEARRRKQWQEAEKEQKREEAARLAQEAPGLAFTTPVVASAAPVATLAPTTRAMAPAEEEVGPRRGDFTRLEYERRAQLKLMDDLDKVLRPRASGTGGPGRGGRRATRPRSGCCDDSALARSPARGLLGSRLSKVYSQSTLSLSTVANEAPNNLGVKRPTSRAPSPSGLMSPSRLPGSRERDWENGSNASSPASVPEYTGPRLYKEPSAKSNKFIIHNALSHCCLAGKVNEPQKNRILEEIEKSKANHFLILFRDSSCQFRALYTLSGETEELSRLAGYGPRTVTPAMVEGIYKYNSDRKRFTQIPAKTMSMSVDAFTIQGHLWQSKKPTTPKKGGGTPK
modifications: Alexa Fluor 647 dye on the SNAP tag

percent colocalization with γ-TuC [12]: 72% | percent colocalization with γ-TuC [13]: 72%
B2: mCherry–CLASP2 (natural protein)
chain: MAMGDDKSFDDEESVDGNRPSSAASAFKVPAPKTSGNPANSARKPGSAGGPKVGGASKEGGAGAVDEDDFIKAFTDVPSIQIYSSRELEETLNKIREILSDDKHDWDQRANALKKIRSLLVAGAAQYDCFFQHLRLLDGALKLSAKDLRSQVVREACITVAHLSTVLGNKFDHGAEAIVPTLFNLVPNSAKVMATSGCAAIRFIIRHTHVPRLIPLITSNCTSKSVPVRRRSFEFLDLLLQEWQTHSLERHAAVLVETIKKGIHDADAEARVEARKTYMGLRNHFPGEAETLYNSLEPSYQKSLQTYLKSSGSVASLPQSDRSSSSSQESLNRPFSSKWSTANPSTVAGRVSAGSSKASSLPGSLQRSRSDIDVNAAAGAKAHHAAGQSVRSGRLGAGALNAGSYASLEDTSDKLDGTASEDGRVRAKLSAPLAGMGNAKADSRGRSRTKMVSQSQPGSRSGSPGRVLTTTALSTVSSGVQRVLVNSASAQKRSKIPRSQGCSREASPSRLSVARSSRIPRPSVSQGCSREASRESSRDTSPVRSFQPLASRHHSRSTGALYAPEVYGASGPGYGISQSSRLSSSVSAMRVLNTGSDVEEAVADALKKPARRRYESYGMHSDDDANSDASSACSERSYSSRNGSIPTYMRQTEDVAEVLNRCASSNWSERKEGLLGLQNLLKNQRTLSRVELKRLCEIFTRMFADPHGKRVFSMFLETLVDFIQVHKDDLQDWLFVLLTQLLKKMGADLLGSVQAKVQKALDVTRESFPNDLQFNILMRFTVDQTQTPSLKVKVAILKYIETLAKQMDPGDFINSSETRLAVSRVITWTTEPKSSDVRKAAQSVLISLFELNTPEFTMLLGALPKTFQDGATKLLHNHLRNTGNGTQSSMGSPLTRPTPRSPANWSSPLTSPTNTSQNTLSPSAFDYDTENMNSEDIYSSLRGVTEAIQNFSFRSQEDMNEPLKRDSKKDDGDSMCGGPGMSDPRAGGDATDSSQTALDNKASLLHSMPTHSSPRSRDYNPYNYSDSISPFNKSALKEAMFDDDADQFPDDLSLDHSDLVAELLKELSNHNERVEERKIALYELMKLTQEESFSVWDEHFKTILLLLLETLGDKEPTIRALALKVLREILRHQPARFKNYAELTVMKTLEAHKDPHKEVVRSAEEAASVLATSISPEQCIKVLCPIIQTADYPINLAAIKMQTKVIERVSKETLNLLLPEIMPGLIQGYDNSESSVRKACVFCLVAVHAVIGDELKPHLSQLTGSKMKLLNLYIKRAQTGSGGADPTTDVSGQS

γ-TuC displacement frequency (microtubules released among γ-TuC-anchored minus ends colocalizing with the CAMSAP) [1]: 90% | percent of γ-TuC-nucleated microtubules with CAMSAP at the minus end [10]: 15%
B3: mCherry–CAMSAP2 (natural protein)
chain: MGDAADPREMRKTFIVPAIKPFDHYDFSRAKIACNLAWLVAKAFGTENVPEELQEPFYTDQYDQEHIKPPVVNLLLSAELYCRAGSLILKSDAAKPLLGHDAVIQALAQKGLYVTDQEKLVTERDLHKKPIQMSAHLAMIDTLMMAYTVEMVSIEKVIACAQQYSAFFQATDLPYDIEDAVMYWINKVNEHLKDIMEQEQKLKEHHTVEAPGGQKSPSKWFWKLVPARYRKEQTLLKQLPCIPLVENLLKDGTDGCALAALIHFYCPDVVRLEDICLKETMSLADSLYNLQLIQEFCQEYLNQCCHFTLEDMLYAASSIKSNYLVFMAELFWWFEVVKPSFVQPRVVRPQGAEPVKDMPSIPVLNAAKRNVLDSSSDFPSSGEGATFTQSHHHLPSRYSRPQAHSSASGGIRRSSSMSYVDGFIGTWPKEKRSSVHGVSFDISFDKEDSVQRSTPNRGITRSISNEGLTLNNSHVSKHIRKNLSFKPINGEEEAESIEEELNIDSHSDLKSCVPLNTNELNSNENIHYKLPNGALQNRILLDEFGNQIETPSIEEALQIIHDTEKSPHTPQPDQIANGFFLHSQEMSILNSNIKLNQSSPDNVTDTKGALSPITDNTEVDTGIHVPSEDIPETMDEDSSLRDYTVSLDSDMDDASKFLQDYDIRTGNTREALSPCPSTVSTKSQPGSSASSSSGVKMTSFAEQKFRKLNHTDGKSSGSSSQKTTPEGSELNIPHVVAWAQIPEETGLPQGRDTTQLLASEMVHLRMKLEEKRRAIEAQKKKMEAAFTKQRQKMGRTAFLTVVKKKGDGISPLREEAAGAEDEKVYTDRAKEKESQKTDGQRSKSLADIKESMENPQAKWLKSPTTPIDPEKQWNLASPSEETLNEGEILEYTKSIEKLNSSLHFLQQEMQRLSLQQEMLMQMREQQSWVISPPQPSPQKQIRDFKPSKQAGLSSAIAPFSSDSPRPTHPSPQSSNRKSASFSVKSQRTPRPNELKITPLNRTLTPPRSVDSLPRLRRFSPSQVPIQTRSFVCFGDDGEPQLKESKPKEEVKKEELESKGTLEQRGHNPEEKEIKPFESTVSEVLSLPVTETVCLTPNEDQLNQPTEPPPKPVFPPTAPKNVNLIEVSLSDLKPPEKADVPVEKYDGESDKEQFDDDQKVCCGFFFKDDQKAENDMAMKRAALLEKRLRREKETQLRKQQLEAEMEHKKEETRRKTEEERQKKEDERARREFIRQEYMRRKQLKLMEDMDTVIKPRPQVVKQKKQRPKSIHRDHIESPKTPIKGPPVSSLSLASLNTGDNESVHSGKRTPRSESVEGFLSPSRCGSRNGEKDWENASTTSSVASGTEYTGPKLYKEPSAKSNKHIIQNALAHCCLAGKVNEGQKKKILEEMEKSDANNFLILFRDSGCQFRSLYTYCPETEEINKLTGIGPKSITKKMIEGLYKYNSDRKQFSHIPAKTLSASVDAITIHSHLWQTKRPVTPKKLLPTKA
